In PMC5460017, “Regulated membrane remodeling by Mic60 controls formation of mitochondrial crista junctions” (Nature Communications, 2017):
Bridge positions count the residues as written; N and C are the ends. Ends that are not written are not given here.

B1: Mic60solΔLBS1 (Chaetomium thermophilum Mic60sol with an internal deletion of LBS1) (domain or fragment)
chain: SSIQAVESAKKEAKVTRAKPAVIEEAKKKEEEKEEQTPKEAAASVVQEKKTVPKPEPPKSEPSSPAAAIVPAAALVEEKKEEEEVKKKKWKAPEVDEPSRWPPASPIDPITVPDAAEPVVQELVRMLNDIITVINHDGANEKYGATIGKAKEKIAKVGQKIRDMKAAAEQEAAQQVKQKIDEFDKTANELVSRLESVIVAQEQAFRREFEEEMARVKASYDAKVQLIQQRERQLAEQRLQNQLLEQAVELQRHFAREVQEQVERERDGRLGRLQELSAAVADLERLTADWNSVIDTNLRTQQLHVAVEAVRASLDDARHPRPFIRELVALKEIAAGDPVVDAAIASIPPSAYQRGASLLPEDAGLASHASSYVLSKVLFKKPVPATTTTTAGAVGDDVESILARTQAFLEEGDLDNAAREMNALTGWSKTLSRDWLAEVRKVLEVRQALEVIQAEARLQSLRLE
modifications: His6 tag removed; outer limits 208-691 printed; LBS1 = 563-582 deduced from the printed truncations ending at 562 (no LBS) and 582 (LBS1 kept); check residues lie in the deleted segment and only …
B2: isolated CHCH domain of Mic19 (Chaetomium thermophilum) (domain or fragment)
chain: RPLPESVEKARSEVVRCLREHDRRPLNCWQEVEAFKEEVRKLEKGWVDK
modifications: disulfide 17-28

Legend:
[1] = biological target: T1, Mic60solΔLBS1 (Chaetomium thermophilum Mic60sol with an internal deletion of LBS1) (Chaetomium thermophilum); test: native gel or EMSA; blue native (BN)-PAGE of purified Mic60 constructs; conditions: both partners purified
T1 chain: B1 chain

[2] = biological target: T2, Mic60sol (Chaetomium thermophilum Mic60, residues 208–691) (Chaetomium thermophilum); test: ITC; about 450 μM Mic19 construct in the syringe titrated into about 40 μM Mic60 construct in the cell; 10 °C; 20 mM HEPES/NaOH pH 7.5, 150 mM NaCl; untagged proteins; conditions: both partners purified
T2 construct: Mic60 of Chaetomium thermophilum, UniProt G0SHY5, residues 208-691; codon-optimized synthetic cDNA in a modified pET28a; source: E. coli BL21 DE3, purified (Ni-NTA, His6 tag cleaved with PreScission protease, size-exclusion chromatography); not shown: His6, N-terminal, cleaved

Binder | stoichiometry N [1] | Kd [2] [nM] | stoichiometry N [2]
B1 | 2 | – | –
B2 | – | 390 | 0.77 ± 0.01
